{"source": "patent KR20180129514A", "about": "(dated 2018)", "binders": {"B1": {"name": "세포질 침투 항체 TMab4 (antibody, V domains shown)", "VH": "EVQLVESGGGLVQPGGSLRLSCAASGYTFTSYVMHWVRQAPGKGLEWVSAINPYNDGNYYADSVKGRFTISRDNSRKTLYLQMNSLRAEDTAVYYCARGAYKRGYAMDYWGQGTTVTVSS", "VL": "DLVMTQSPSSLSASVGDRVTITCKSSQSLFNSRTRKNYLAWYQQKPGKAPKLLIYWASTRESGVPSRFSGSGSGTDFTLTISSLQPEDFATYYCQQYYYHMYTFGQGTKVEIKR", "notes": "Full IgG format (CH1-hinge-CH2-CH3 and CL, detected with anti-human Fc); also called cytotransmab; CT"}}, "target": "T1, mCherry H-RAS G12V (NIH3T3 세포주에서 발현) (UniProt P01112 1-186)", "T1 construct": "whole, on cells; Intracellular, at the inner face of the cell membrane; also called 세포내 활성화된 H-RAS G12V 돌연변이; 활성화된 RAS; not shown: mCherry red fluorescent protein", "test": "confocal microscopy, overlap in NIH3T3 cells expressing mCherry H-RAS G12V"}
{"binder": "B1", "values": [{"measurement": "binding result", "result": "no binding (tested: 2 μM)"}]}
